Residue numbers refer to the chain shown, from its start. Numbers in names are those of the source.
B1: SEQ ID NO: 8: P450-BM3 parental backbone from the commercially available MCYP panel (MCYP-0343; Codexis) (protein)
chain: MTIKEMPQPKTFGELKNLPLLNTDKPVQALMKIADELGEIFKFEAPGRVTRYLSSQRLIKEACDESRFDKNLSQALKFARDFAGDGLFTSWTHEKNWKKAHNILLPSFSQQAMKGYHAMMVDIAVQLVQKWERLNADEYIEVPEDMTRLTLDTIGLCGFNYRFNSFYRDQPHPFIISMIRALDEVMNKLQRANPDDPAYDENKRQFQEDIKVMNDLVDKIIADRKASGEQSDDLLTQMLNGKDPETGEPLDDGNISYQIITFLIAGHETTSGLLSFALYFLVKNPHVLQKVAEEATRVLVDPVPSYKQVKQLKYVGMVLNEALRLWPTAPAFSLYAKEDTVLGGEYPLEKGDEVMVLIPQLHRDKTIWGDDVEEFRPERFENPSAIPQHAFKPFGNGQRACIGQQFALHEATLVLGMMLKHFDFEDHTNYELDIKETLTLKPEGFVVKAKSKKIPLGGIPSPSTEQSAKKVRKKAENAHNTPLLVLYGSNMGTAEGTARDLADIAMSKGFAPQVATLDSHAGNLPREGAVLIVTASYNGHPPDNAKQFVDWLDQASADEVKGVRYSVFGCGDKNWATTYQKVPAFIDETLAAKGAENIADRGEADASDDFEGTYEEWREHMWSDVAAYFNLDIENSEDNKSTLSLQFVDSAADMPLAKMHGAFSTNVVASKELQQPGSARSTRHLEIELPKEASYQEGDHLGVIPRNYEGIVNRVTARFGLDASQQIRLEAEEEKLAHLPLAKTVSVEELLQYVELQDPVTRTQLRAMAAKTVCPPHKVELEALLEKQAYKEQVLAKRLTMLELLEKYPACEMKFSEFIALLPSIRPRYYSISSSPRVDEKQASITVSVVSGEAWSGYGEYKGIASNYLAELQEGDTITCFISTPQSEFTLPKDPETPLIMVGPGTGVAPFRGFVQARKQLKEQGQSLGEAHLYFGCRSPHEDYLYQEELENAQSEGIITLHTAFSRMPNQPKTYVQHVMEQDGKKLIELLDQGAHFYICGDGSQMAPAVEATLMKSYADVHQVSEADARLWLQQLEEKGRYAKDVWAG
modifications: P450_BM3
B2: Variant 9: P450-BM3 variant of SEQ ID NO: 8: Y52F; D232H; E349K; E619D; D722S; R762H (protein)
chain: B1 chain with Y52F, D232H, E349K, E619D, D722S, R762H
modifications: P450_BM3
notes: D232H; E349K; E619D; D722S; R762H
B3: Variant 8: P450-BM3 variant of SEQ ID NO: 2: D118R; L219Y; K236H; S353T; N579T; T582A; E624D; D727S (protein)
chain: MLMKQASAIPQPKTYGPLKNLPHLEKEQLSQSLWRIADELGPIFRFDFPGVSSVFVSGHNLVAEVCDEERFDKSIEGALEKVRAFSGDGLATSWTHEPNWRKAHNILMPTFSQRAMKRYHEKMVDIATQLIQKWSRLNPNEEIDVADDMTRLTLDTIGLCGFNYRFNSFYRDQPHPFITSMVRALDEAMNKLQRANPDDPAYDENKRQFQEDIKVMNDYVDSIIAERRANGDQDEHDLLARMLNVEDPETGEKLDDENIRFQIITFLIAGHETTSGLLSFAIYCLLTHPEKLKKAQEEADRVLTDDTPEYKQIQQLKYIRMVLNETLRLYPTAPAFSLYAKEDTVLGGEYPITKGQPVTVLIPKLHRDQNAWGPDAEDFRPERFEDPSSIPHHAYKPFGNGQRACIGMQFALQEATMVLGLVLKHFELINHTGYELKIKEALTIKPDDFKITVKPRKTAAINVQRKEQAEQSAKKVRKKAENAHNTPLLVLYGSNMGTAEGTARDLADIAMSKGFAPQVATLDSHAGNLPREGAVLIVTASYNGHPPDNAKQFVDWLDQASADEVKGVRYSVFGCGDKTWAATYQKVPAFIDETLAAKGAENIADRGEADASDDFEGTYEEWRDHMWSDVAAYFNLDIENSEDNKSTLSLQFVDSAADMPLAKMHGAFSTNVVASKELQQPGSARSTRHLEIELPKEASYQEGDHLGVIPRNYEGIVNRVTARFGLSASQQIRLEAEEEKLAHLPLAKTVSVEELLQYVELQDPVTRTQLRAMAAKTVCPPHKVELEALLEKQAYKEQVLAKRLTMLELLEKYPACEMKFSEFIALLPSIRPRYYSISSSPRVDEKQASITVSVVSGEAWSGYGEYKGIASNYLAELQEGDTITCFISTPQSEFTLPKDPETPLIMVGPGTGVAPFRGFVQARKQLKEQGQSLGEAHLYFGCRSPHEDYLYQEELENAQSEGIITLHTAFSRMPNQPKTYVQHVMEQDGKKLIELLDQGAHFYICGDGSQMAPAVEATLMKSYADVHQVSEADARLWLQQLEEKGRYAKDVWAG
modifications: P450_BM3
notes: L219Y; K236H; S353T; N579T; T582A; E624D; D727S

What was measured:
Format in all cases: biochemical
[1] = Validation of generalist properties: oxidation of gefitinib by lyophilized P450-BM3 variant, UPLC-MS; details: [Gefitinib] = 1 mM; for TON: TON = [substrate]*% conversion/[P450]
Method: (§1) For the production of lyophilized protein powders, LB agar plates supplemented with chloramphenicol (30 μg/mL) were streaked with E. coli containing a desired B. megaterium P450-BM3 variant in an IPTG-inducible vector. The plates were grown at 37° C. for 16 hrs before single clones were selected to inoculate a 15 mL Falcon™ tube (Fisher) containing TB media (3 mL) supplemented with chloramphenicol (30 μg/mL). The tube was shaken at 200 rpm, 30° C., and 85% humidity for 20-24 h to grow the cultures to saturation. Then, 2.5 mL of the overnight culture was used to inoculate sterile 1 L flasks containing TB medium (250 mL) supplemented with chloramphenicol (30 μg/mL), trace element solution (as described above), and 0.05 g/L ammonium iron (III) citrate. After being shaken at 250 rpm, 30° C., and 85% humidity to an OD600 of 0.8-1.2, P450 expression was induced by addition of IPTG (500 uM) and the heme precursor 5-aminolevulinic acid (5-ALA) to a final concentration of 500 uM. The cultures were grown for additional 20-24 hours and centrifuged in pre-weighed 250 mL centrifuge bottles for 20 minutes at 4000 rpm, 4° C. The supernatants were discarded, and the centrifuge bottles containing cell pellets were weighed. The pellets were resuspended in 50 mM potassium phosphate buffer with 2 mM DTT, pH 8.0 (5 mL of buffer per gram of cell pellet). The cells were lysed using a microfluidizer homogenizer, and the suspensions of cells and lysate were collected in sterile 50 mL centrifuge tubes. The samples were centrifuged for 30 minutes at 10,000 rpm, 4° C. The clarified lysate was collected into a plastic petri plate and frozen at −80° C. prior to lyophilization. The enzyme-containing lysates were lyophilized using standard methods known in the art.
(§2) Enzyme stocks (˜12 μM) were prepared by dissolving ˜20 mg of each enzyme in 100 mM potassium phosphate buffer, pH 8.0 (1 mL). The concentration of each enzyme stock solution was determined by the UV-visible absorption spectroscopy (after centrifugation to remove particulates) and diluted to standardize at 12 μM heme protein. Substrate solutions were prepared by dissolving each substrate in DMSO to reach a final concentration of 20 mM or 40 mM. Reaction mix (235 μL) followed by enzyme solution (50 μL) was added to the plates. The substrate stock solution was added to the enzyme solutions (15 μL at the two different concentrations). Each reaction contained 100 mM potassium phosphate, 1.0 mM NADP+, 25 mM glucose, 0.5 mg/mL glucose dehydrogenase, 5% DMSO and substrate at 1 or 2 mM. Loratadine, imatinib, and gefitinib (See, FIG. 1) were selected as substrates in addition to diclofenac to validate improved BM3 variants. The reactions were shaken at 450 rpm at 30° C. over 24 hours. All reactions were diluted with acetonitrile to a final concentration of 0.5 mM substrate. The plates were then centrifuged at 3,000 g for 1 hour at 20° C. The supernatant was diluted 1:1 with acetonitrile, filtered using a 0.4 micron filter, and analyzed by UPLC-MS.
(§3) For UPLC-MS analysis, the quenched and filtered reactions were transferred to 96-well HTP plates for analysis by UPLC on a Waters Acquity H-class system equipped with an autosampler. 1 uL of quenched sample was injected onto an Acquity UPLC HSS T3 column, 100 Å, (1.8 um; 2.1×100 mm). The column was eluted at a constant flow rate of 0.6 mL/min; conditions with solvent A (0.05% trifluoroacetic acid v/v, in H2O) and solvent B (0.05% trifluoroacetic acid v/v, in acetonitrile) used to elute the products of the reaction were: 0-2 min, A/B 95:5; 2-2.9 min, A/B 5:95; 2.9-3 min, A/B 95:5; 3-3.5 min, A/B 95:5. Column eluent was monitored by PDA (200-600 nm) prior to MS analysis in positive ESI mode (desolvation temperature 350° C., 3.25 kV spray voltage, cone voltage 25V). The column eluent was diverted to waste for the first 0.7 minutes of the run. For the remainder of the LC run, both MS (m/z 95-600 scan range) and MS/MS were collected. […]

[2] = Validation of generalist properties: oxidation of diclofenac by lyophilized P450-BM3 variant, UPLC-MS; details: [Diclofenac] = 1 mM; for TON: TON = [substrate]*% conversion/[P450]
Method: as §1, §2, §3

[3] = Validation of generalist properties: oxidation of loratadine by lyophilized P450-BM3 variant, UPLC-MS; details: [Loratadine] = 1 mM; for TON: TON = [substrate]*% conversion/[P450]
Method: as §1, §2, §3

[4] = Validation of generalist properties: oxidation of imatinib by lyophilized P450-BM3 variant, UPLC-MS; details: [Imatinib] = 1 mM; for TON: TON = [substrate]*% conversion/[P450]
Method: as §1, §2, §3

[5] = fold improvement over parent MCYP-P1.2-B02
[6] = fold improvement over parent MCYP-1.2-A05

Molecule | % Conv. [1] | TON [1] | % Conv. [2] | TON [2] | % Conv. [3] | TON [3] | % Conv. [4] | TON [4] | FIOPC (B02) [1, 5] | FIOPC (B02) [2, 5] | FIOPC (B02) [3, 5] | FIOPC (B02) [4, 5] | FIOPC (A05) [1, 6] | FIOPC (A05) [2, 6] | FIOPC (A05) [3, 6] | FIOPC (A05) [4, 6]
B1 | + (0-5.00) | ‡ (0-1000) | ++ (5.01-10.00) | ‡‡ (1001-5000) | ++ (5.01-10.00) | ‡‡ (1001-5000) | ++++ (15.01-20.00) | ‡‡‡‡ (10000-50000) |  |  |  |  |  |  |  | 
B2 | + (0-5.00) | ‡ (0-1000) | ++++ (15.01-20.00) | ‡‡‡ (5001-10000) | ++ (5.01-10.00) | ‡‡ (1001-5000) | ++++ (15.01-20.00) | ‡‡‡‡ (10000-50000) | * (0.0-3.0) | * (0.0-3.0) | * (0.0-3.0) | * (0.0-3.0) |  |  |  | 
B3 | + (0-5.00) | ‡ (0-1000) | + (0-5.00) | ‡‡ (1001-5000) | ++ (5.01-10.00) | ‡‡ (1001-5000) | ++++ (15.01-20.00) | ‡‡‡ (5001-10000) |  |  |  |  | * (0.0-3.0) | **** (10.01-15.00) | **** (10.01-15.00) | * (0.0-3.0)

Source: patent US10704030B2, “P450-BM3 variants with improved activity” (Codexis, Inc., priority 2015, dated 2020)
